These results are taken from PMC11150392, “Structure and mechanism of the K^+/H^+ exchanger KefC” (Nature Communications, 2024).

B1: KefC WT*-GFP fusion [Escherichia coli] / itself (parent)
chain: MDSHTLIQALIYLGSAALIVPIAVRLGLGSVLGYLIAGCIIGPWGLRLVTDAESILHFAEIGVVLMLFIIGLELDPQRLWKLRAAVFGCGALQMVICGGLLGLFCMLLGLRWQVAELIGMTLALSSTAIAMQAMNERNLMVTQMGRSAFAVLLFQDIAAIPLVAMIPLLATSSASTTMGAFALSALKVAGALVLVVLLGRYVTRPALRFVARSGLREVFSAVALFLVFGFGLLLEEVGLSMAMGAFLAGVLLASSEYRHALESDIEPFKGLLLGLFFIGVGMSIDFGTLLENPLRIVILLLGFLIIKIAMLWLIARPLQVPNKQRRWFAVLLGQGSEFAFVVFGAAQMANVLEPEWAKSLTLAVALSMAATPILLVILNRLEQSSTEEAREADEIDEEQPRVIIAGFGRFGQITGRLLLSSGVKMVVLDHDPDHIETLRKFGMKVFYGDATRMDLLESAGAAKAEVLINAIDDPQTNLQLTEMVKEHFPHLQIIARARDVDHYIRLRQAGVEKPERETFEGALKTGRLALESLGLGPYEARERADVFRRFNIQMVEEMAM

Variants of B1 are the subject of the experiment. The experiment can be described thus: FSEC of DDM solubilized membranes after heating. Conditions: with itself; 10 mins at 60 °C; 1 mM AMP; read off a plot. Set-up: unit not given here.
As to MDSHTLIQALIYLGSAALIVPIAVRLGLGSVLGYLIAGCIIGPWGLRLVTDAESILHFAEIGVVLMLFIIGLELDPQRLWKLRAAVFGCGALQMVICGGLLGLFCMLLGLRWQVAELIGMTLALSSTAIAMQAMNERNLMVTQMGRSAFAVLLFQDIAAIPLVAMIPLLATSSASTTMGAFALSALKVAGALVLVVLLGRYVTRPALRFVARSGLREVFSAVALFLVFGFGLLLEEVGLSMAMGAFLAGVLLASSEYRHALESDIEPFKGLLLGLFFIGVGMSIDFGTLLENPLRIVILLLGFLIIKIAMLWLIARPLQVPNKQRRWFAVLLGQGSEFAFVVFGAAQMANVLEPEWAKSLTLAVALSMAATPILLVILNRLEQSSTEEAREADEIDEEQPRVIIAGFGRFGQITGRLLLSSGVKMVVLDHDPDHIETLRKFGMKVFYGDATRMDLLESAGAAKAEVLINAIDDPQTNLQLTEMVKEHFPHLQIIARARDVDHYIRLRQAGVEKPERETFEGALKTGRLALESLGLGPYEAREAADVFRRFNIQMVEEMAM [chain 1 R543A], the screen value turned out to be 2.5.

With MDSHTLIQALIYLGSAALIVPIAVRLGLGSVLGYLIAGCIIGPWGLRLVTDAESILHFAEIGVVLMLFIIGLELDPQRLWKLRAAVFGCGALQMVICGGLLGLFCMLLGLRWQVAELIGMTLALSSTAIAMQAMAERNLMVTQMGRSAFAVLLFQDIAAIPLVAMIPLLATSSASTTMGAFALSALKVAGALVLVVLLGRYVTRPALRFVARSGLREVFSAVALFLVFGFGLLLEEVGLSMAMGAFLAGVLLASSEYRHALESDIEPFKGLLLGLFFIGVGMSIDFGTLLENPLRIVILLLGFLIIKIAMLWLIARPLQVPNKQRRWFAVLLGQGSEFAFVVFGAAQMANVLEPEWAKSLTLAVALSMAATPILLVILNRLEQSSTEEAREADEIDEEQPRVIIAGFGRFGQITGRLLLSSGVKMVVLDHDPDHIETLRKFGMKVFYGDATRMDLLESAGAAKAEVLINAIDDPQTNLQLTEMVKEHFPHLQIIARARDVDHYIRLRQAGVEKPERETFEGALKTGRLALESLGLGPYEARERADVFRRFNIQMVEEMAM [chain 1 N135A], the screen value stood at 89.

As to MDSHTLIQALIYLGSAALIVPIAVRLGLGSVLGYLIAGCIIGPWGLRLVTDAESILHFAEIGVVLMLFIIGLELDPQRLWKLRAAVFGCGALQMVICGGLLGLFCMLLGLRWQVAELIGMTLALSSTAIAMQAMNERNLMVTQMGASAFAVLLFQDIAAIPLVAMIPLLATSSASTTMGAFALSALKVAGALVLVVLLGRYVTRPALRFVARSGLREVFSAVALFLVFGFGLLLEEVGLSMAMGAFLAGVLLASSEYRHALESDIEPFKGLLLGLFFIGVGMSIDFGTLLENPLRIVILLLGFLIIKIAMLWLIARPLQVPNKQRRWFAVLLGQGSEFAFVVFGAAQMANVLEPEWAKSLTLAVALSMAATPILLVILNRLEQSSTEEAREADEIDEEQPRVIIAGFGRFGQITGRLLLSSGVKMVVLDHDPDHIETLRKFGMKVFYGDATRMDLLESAGAAKAEVLINAIDDPQTNLQLTEMVKEHFPHLQIIARARDVDHYIRLRQAGVEKPERETFEGALKTGRLALESLGLGPYEARERADVFRRFNIQMVEEMAM [chain 1 R146A], the screen value was found to be 86.

Take MDSHTLIQALIYLGSAALIVPIAVRLGLGSVLGYLIAGCIIGPWGLRLVTDAESILHFAEIGVVLMLFIIGLELDPQRLWALRAAVFGCGALQMVICGGLLGLFCMLLGLRWQVAELIGMTLALSSTAIAMQAMNERNLMVTQMGRSAFAVLLFQDIAAIPLVAMIPLLATSSASTTMGAFALSALKVAGALVLVVLLGRYVTRPALRFVARSGLREVFSAVALFLVFGFGLLLEEVGLSMAMGAFLAGVLLASSEYRHALESDIEPFKGLLLGLFFIGVGMSIDFGTLLENPLRIVILLLGFLIIKIAMLWLIARPLQVPNKQRRWFAVLLGQGSEFAFVVFGAAQMANVLEPEWAKSLTLAVALSMAATPILLVILNRLEQSSTEEAREADEIDEEQPRVIIAGFGRFGQITGRLLLSSGVKMVVLDHDPDHIETLRKFGMKVFYGDATRMDLLESAGAAKAEVLINAIDDPQTNLQLTEMVKEHFPHLQIIARARDVDHYIRLRQAGVEKPERETFEGALKTGRLALESLGLGPYEARERADVFRRFNIQMVEEMAM [chain 1 K81A]: the screen value stood at 10.

MDSHTLIQALIYLGSAALIVPIAVRLGLGSVLGYLIAGCIIGPWGLRLVTDAESILHFAEIGVVLMLFIIGLELDPQRLWKLRAAVFGCGALQMVICGGLLGLFCMLLGLRWQVAELIGMTLALSSTAIAMQAMNERNLMVTQMGRSAFAVLLFQDIAAIPLVAMIPLLATSSASTTMGAFALSALKVAGALVLVVLLGRYVTRPALRFVARSGLREVFSAVALFLVFGFGLLLEEVGLSMAMGAFLAGVLLASSEYRAALESDIEPFKGLLLGLFFIGVGMSIDFGTLLENPLRIVILLLGFLIIKIAMLWLIARPLQVPNKQRRWFAVLLGQGSEFAFVVFGAAQMANVLEPEWAKSLTLAVALSMAATPILLVILNRLEQSSTEEAREADEIDEEQPRVIIAGFGRFGQITGRLLLSSGVKMVVLDHDPDHIETLRKFGMKVFYGDATRMDLLESAGAAKAEVLINAIDDPQTNLQLTEMVKEHFPHLQIIARARDVDHYIRLRQAGVEKPERETFEGALKTGRLALESLGLGPYEARERADVFRRFNIQMVEEMAM [chain 1 H259A]: the screen value stood at 6.5.

On to MDSHTLIQALIYLGSAALIVPIAVRLGLGSVLGYLIAGCIIGPWGLRLVTDAESILHFAEIGVVLMLFIIGLELDPQRLWKLRAAVFGCGALQMVICGGLLGLFCMLLGLRWQVAELIGMTLALSSTAIAMQAMNERNLMVTQMGRSAFAVLLFQDIAAIPLVAMIPLLATSSASTTMGAFALSALKVAGALVLVVLLGRYVTRPALRFVARSGLREVFSAVALFLVFGFGLLLEEVGLSMAMGAFLAGVLLASSEYRHALESDIEPFKGLLLGLFFIGVGMSIDFGTLLENPLRIVILLLGFLIIKIAMLWLIARPLQVPNKQRRWFAVLLGQGSEFAFVVFGAAQMANVLEPEWAKSLTLAVALSMAATPILLVILNRLEQSSTEEAREADEIDEEQPRVIIAGFGRFGQITGRLLLSSGVKMVVLDHDPDHIETLRKFGMKVFYGDATRMDLLESAGAAKAAVLINAIDDPQTNLQLTEMVKEHFPHLQIIARARDVDHYIRLRQAGVEKPERETFEGALKTGRLALESLGLGPYEARERADVFRRFNIQMVEEMAM [chain 1 E465A], for which the screen value was 5.5.

For MDSHTLIQALIYLGSAALIVPIAVRLGLGSVLGYLIAGCIIGPWGLRLVTDAESILHFAEIGVVLMLFIIGLELDPQRLWKLRAAVFGCGALQMVICGGLLGLFCMLLGLRWQVAELIGMTLALSSTAIAMQAMNERNLMVTQMGRSAFAVLLFQDIAAIPLVAMIPLLATSSASTTMGAFALSALKVAGALVLVVLLGRYVTRPALRFVARSGLREVFSAVALFLVFGFGLLLEEVGLSMAMGAFLAGVLLASSEYRHALESDIEPFKGLLLGLFFIGVGMSIDFGTLLENPLRIVILLLGFLIIKIAMLWLIARPLQVPNKQRRWFAVLLGQGSEFAFVVFGAAQMANVLEPEWAKSLTLAVALSMAATPILLVILNRLEQSSTEEAREADEIDEEQPAVIIAGFGRFGQITGRLLLSSGVKMVVLDHDPDHIETLRKFGMKVFYGDATRMDLLESAGAAKAEVLINAIDDPQTNLQLTEMVKEHFPHLQIIARARDVDHYIRLRQAGVEKPERETFEGALKTGRLALESLGLGPYEARERADVFRRFNIQMVEEMAM [chain 1 R401A], the screen value was determined as 74.
